Data taken from the RNAGym collection of RNA variant scans (doi:10.1021/acssynbio.7b00057).

B1: Pistol ribozyme (parent)
chain: GGGUCGUUGUUCCAUAAUCGCGUGGAUAUGGCACGCAAGUUUCUACCGGGCACCGUAAAUGUCCGACUGGAGCCGUUCGGGCGGCUAUAAACAGACCUCAGGCCCGAAGCGUGGCGGCACCUGCCGCCGGUGGUAAAAAAGAUCGGAAGAGCACACGUCU

Variants of: B1
Test: aptazyme ON/OFF ratio, guanine; higher = stronger switching; co-transcriptional cleavage with and without guanine

| Variant | aptazyme ON/OFF ratio |
| --- | --- |
| U7A U8C G9C U10G C12A C13A | 1.06 |
| U7A U8C G9C U10G C12A C13G | 1.12 |
| U7A U8C G9C U10G C12A C13U | 1.07 |
| U7A U8C G9U C13A | 1.27 |
| U7A U8C G9U C13G | 1.03 |
| U7A U8C G9U C13U | 1.23 |
| U7A U8C G9U U10C U11A C12G C13G | 1.22 |
| U7A U8C G9U U10C U11A C12G C13U | 1.11 |
| U7A U8C G9U U10C U11A C12G C13A | 1.11 |
| U7A U8C G9C U10G U11C C12A C13U | 1.09 |
| U7A U8C G9C U10G U11C C12A C13G | 1.08 |
| U7A U8C G9C U10G U11C C12A C13A | 1.05 |
| U7A U8C G9C U10C C12A | 1.03 |
| U7A U8C G9C U10C C12G | 1.03 |
| U7A U8C G9C U10C C12U | 1.04 |
| U7A U8C G9C U11C C12A C13G | 1.04 |
| U7A U8C G9C U11C C12A C13U | 1.04 |
| U7A U8C G9C U11C C12A C13A | 1.06 |
| U7A U8C G9C U11A C12G C13A | 1.09 |
| U7A U8C G9C U11A C12G C13U | 1.13 |
| U7A U8C G9C U11A C12G C13G | 1.16 |

| Variant | aptazyme ON/OFF ratio |
| --- | --- |
| U7A U8C G9C U10C U11A C13U | 1.04 |
| U7A U8C G9C U10C U11A C13G | 1.08 |
| U7A U8C G9C U10C U11A C13A | 1.07 |
| U7A U8C G9C U10G U11A C12A | 1.26 |
| U7A U8C G9C U10G U11A C12G | 1.11 |
| U7A U8C G9C U10G U11A C12U | 1.04 |
| U7A U8C G9C U10A U11G C12G | 1.12 |
| U7A U8C G9C U10A U11G C12A | 1.04 |
| U7A U8C G9C U10A U11G C12U | 1.19 |
| U7A U8C G9U U10C C12A C13G | 1.29 |
| U7A U8C G9U U10C C12A C13U | 1.26 |
| U7A U8C G9U U10C C12A C13A | 1.14 |
| U7A U8C G9C U11C C12G C13U | 1.09 |
| U7A U8C G9C U11C C12G C13A | 1.07 |
| U7A U8C G9C U11C C12G C13G | 1.13 |
| U7A U8C G9C U10C U11A C12U | 1.03 |
| U7A U8C G9C U10C U11A C12G | 1.02 |
| U7A U8C G9C U10C U11A C12A | 1.07 |
| U7A U8C G9U C12A C13U | 1.27 |
| U7A U8C G9U C12A C13G | 1.19 |
| U7A U8C G9U C12A C13A | 1.15 |

| Variant | aptazyme ON/OFF ratio |
| --- | --- |
| U7A U8C G9C U10C C12U C13G | 1.06 |
| U7A U8C G9C U10C C12U C13U | 1.04 |
| U7A U8C G9C U10C C12U C13A | 1.04 |
| U7A U8C G9U U10A U11C C12U | 1.04 |
| U7A U8C G9U U10A U11C C12A | 1.2 |
| U7A U8C G9U U10A U11C C12G | 1.27 |
| U7A U8C G9U U10A C12U | 1.18 |
| U7A U8C G9U U10A C12A | 1.25 |
| U7A U8C G9U U10A C12G | 1.23 |
| U7A U8C G9U U10C U11C C12U | 1.06 |
| U7A U8C G9U U10C U11C C12A | 1.08 |
| U7A U8C G9U U10C U11C C12G | 1.07 |
| U7A U8C G9C U11A C12A C13U | 1.05 |
| U7A U8C G9C U11A C12A C13A | 1.07 |
| U7A U8C G9C U11A C12A C13G | 1.08 |
| U7A U8C G9C U10C U11A C12U C13U | 1.02 |
| U7A U8C G9C U10C U11A C12U C13G | 1.01 |
| U7A U8C G9C U10C U11A C12U C13A | 1.04 |
| U7A U8C G9C U11G C12A C13G | 1.31 |
| U7A U8C G9C U11G C12A C13U | 1.11 |
| U7A U8C G9C U11G C12A C13A | 1.11 |

| Variant | aptazyme ON/OFF ratio |
| --- | --- |
| U7A U8C G9C U10C | 1.18 |
| U7A U8C G9C U10G | 1.01 |
| U7A U8C G9U U10A C12G C13G | 1.22 |
| U7A U8C G9U U10A C12G C13U | 1.32 |
| U7A U8C G9U U10A C12G C13A | 1.11 |
| U7A U8C G9U U10A U11A C12A C13U | 1.22 |
| U7A U8C G9U U10A U11A C12A C13G | 1.22 |
| U7A U8C G9U U10A U11A C12A C13A | 1.17 |
| U7A U8C G9U U10A U11G C12U C13G | 1.21 |
| U7A U8C G9U U10A U11G C12U C13A | 1.17 |
| U7A U8C G9U U10A U11G C12U C13U | 1.21 |
| U7A U8C G9C U10C U11C C13U | 0.981 |
| U7A U8C G9C U10C U11C C13A | 1.03 |
| U7A U8C G9C U10C U11C C13G | 1.05 |
| U7A U8C G9U U10C U11C | 0.995 |
| U7A U8C G9U U10C U11A | 1.23 |
| U7A U8C G9U U10C U11C C12A C13U | 1.06 |
| U7A U8C G9U U10C U11C C12A C13G | 1.18 |
| U7A U8C G9U U10C U11C C12A C13A | 1.09 |
| U7A U8C G9C U11A C13G | 1.07 |
